# From the Human Domainome abundance scans (Beltran et al. 2025)
# ± gives the uncertainty stated by the source.
# B1: Apoptosis-associated speck-like protein containing a CARD, residues 114 to 194; numbered along this chain, Q9ULZ3 (parent)
# chain: FIDQHRAALIARVTNVEWLLDALYGKVLTDEQYQAVRAEPTNPSKMRKLFSFTPAWNWTCKDLLLQALRESQSYLVEDLER
# Variants of: B1
# Assay: abundance fitness (aPCA) (normalised: wild type 0, dead -1); higher = more abundant; growth selection in yeast, the domain comes from the species named
# Conditions: Homo sapiens
row,Variant,abundance fitness
1,FIDQHRAALIARVTNVEWLLDALYGKVLTDEQYQAVRAEPTNPSKMRKLFSFTPAWNWTHKDLLLQALRESQSYLVEDLER [C60H],0.185 ± 0.13
2,FIDQHRAALIARVTNVEWLLDALYGKVLTDEQYQAVRAEPTNPSKMRKLFSFTPAWNWTPKDLLLQALRESQSYLVEDLER [C60P],-0.625 ± 0.11
3,FIDQHRAALIARVTNVEWLLDALYGKVLTDEQYQAVRAEPTNPSKMRKLFSFTPAWNWTQKDLLLQALRESQSYLVEDLER [C60Q],0.329 ± 0.068
4,FIDQHRAALIARVTNVEWLLDALYGKVLTDEQYQAVRAEPTNPSKMRKLFSFTPAWNWTWKDLLLQALRESQSYLVEDLER [C60W],-0.238 ± 0.071
5,FIDQHRAALIARVTNVEWLLDALYGKVLTDEQYQAVRAEPTNPSKMRKLFSFTPAWNWTFKDLLLQALRESQSYLVEDLER [C60F],-0.162 ± 0.058
6,FIDQHRAALIARVTNVEWLLDALYGKVLTDEQYQAVRAEPTNPSKMRKLFSFTPAWNWTLKDLLLQALRESQSYLVEDLER [C60L],-0.456 ± 0.059
7,FIDQHRAALIARVTNVEWLLDALYGKVLTDEQYQAVRAEPTNPSKMRKLFSFTPAWNWTDKDLLLQALRESQSYLVEDLER [C60D],0.332 ± 0.12
8,FIDQHRAALIARVTNVEWLLDALYGKVLTDEQYQAVRAEPTNPSKMRKLFSFTPAWNWTTKDLLLQALRESQSYLVEDLER [C60T],0.009 ± 0.051
9,FIDQHRAALIARVTNVEWLLDALYGKVLTDEQYQAVRAEPTNPSKMRKLFSFTPAWNWTEKDLLLQALRESQSYLVEDLER [C60E],0.285 ± 0.064
10,FIDQHRAALIARVTNVEWLLDALYGKVLTDEQYQAVRAEPTNPSKMRKLFSFTPAWNWTVKDLLLQALRESQSYLVEDLER [C60V],-0.461 ± 0.059
11,FIDQHRAALIARVTNVEWLLDALYGKVLTDEQYQAVRAEPTNPSKMRKLFSFTPAWNWTSKDLLLQALRESQSYLVEDLER [C60S],0.167 ± 0.045
12,FIDQHRAALIARVTNVEWLLDALYGKVLTDEQYQAVRAEPTNPSKMRKLFSFTPAWNWTMKDLLLQALRESQSYLVEDLER [C60M],0.122 ± 0.066
13,FIDQHRAALIARVTNVEWLLDALYGKVLTDEQYQAVRAEPTNPSKMRKLFSFTPAWNWTRKDLLLQALRESQSYLVEDLER [C60R],-0.265 ± 0.047
14,FIDQHRAALIARVTNVEWLLDALYGKVLTDEQYQAVRAEPTNPSKMRKLFSFTPAWNWTIKDLLLQALRESQSYLVEDLER [C60I],-0.473 ± 0.15
15,FIDQHRAALIARVTNVEWLLDALYGKVLTDEQYQAVRAEPTNPSKMRKLFSFTPAWNWTKKDLLLQALRESQSYLVEDLER [C60K],0.041 ± 0.11
16,FIDQHRAALIARVTNVEWLLDALYGKVLTDEQYQAVRAEPTNPSKMRKLFSFTPAWNWTGKDLLLQALRESQSYLVEDLER [C60G],0.084 ± 0.045
17,FIDQHRAALIARVTNVEWLLDALYGKVLTDEQYQAVRAEPTNPSKMRKLFSFTPAWNWTCADLLLQALRESQSYLVEDLER [K61A],-0.332 ± 0.057

row,Variant,abundance fitness
1,FIDQHRAALIARVTNVEWLLDALYGKVLTDEQYQAVRAEPTNPSKMRKLFSFTPAWNWTCQDLLLQALRESQSYLVEDLER [K61Q],-0.618 ± 0.12
2,FIDQHRAALIARVTNVEWLLDALYGKVLTDEQYQAVRAEPTNPSKMRKLFSFTPAWNWTCEDLLLQALRESQSYLVEDLER [K61E],-0.337 ± 0.089
3,FIDQHRAALIARVTNVEWLLDALYGKVLTDEQYQAVRAEPTNPSKMRKLFSFTPAWNWTCPDLLLQALRESQSYLVEDLER [K61P],-0.806 ± 0.12
4,FIDQHRAALIARVTNVEWLLDALYGKVLTDEQYQAVRAEPTNPSKMRKLFSFTPAWNWTCNDLLLQALRESQSYLVEDLER [K61N],-0.52 ± 0.2
5,FIDQHRAALIARVTNVEWLLDALYGKVLTDEQYQAVRAEPTNPSKMRKLFSFTPAWNWTCGDLLLQALRESQSYLVEDLER [K61G],-0.601 ± 0.064
6,FIDQHRAALIARVTNVEWLLDALYGKVLTDEQYQAVRAEPTNPSKMRKLFSFTPAWNWTCVDLLLQALRESQSYLVEDLER [K61V],-0.649 ± 0.072
7,FIDQHRAALIARVTNVEWLLDALYGKVLTDEQYQAVRAEPTNPSKMRKLFSFTPAWNWTCIDLLLQALRESQSYLVEDLER [K61I],-0.968 ± 0.23
8,FIDQHRAALIARVTNVEWLLDALYGKVLTDEQYQAVRAEPTNPSKMRKLFSFTPAWNWTCDDLLLQALRESQSYLVEDLER [K61D],-0.534 ± 0.19
9,FIDQHRAALIARVTNVEWLLDALYGKVLTDEQYQAVRAEPTNPSKMRKLFSFTPAWNWTCWDLLLQALRESQSYLVEDLER [K61W],-0.003 ± 0.071
10,FIDQHRAALIARVTNVEWLLDALYGKVLTDEQYQAVRAEPTNPSKMRKLFSFTPAWNWTCCDLLLQALRESQSYLVEDLER [K61C],-0.379 ± 0.089
11,FIDQHRAALIARVTNVEWLLDALYGKVLTDEQYQAVRAEPTNPSKMRKLFSFTPAWNWTCHDLLLQALRESQSYLVEDLER [K61H],0.028 ± 0.1
12,FIDQHRAALIARVTNVEWLLDALYGKVLTDEQYQAVRAEPTNPSKMRKLFSFTPAWNWTCYDLLLQALRESQSYLVEDLER [K61Y],0.119 ± 0.13
13,FIDQHRAALIARVTNVEWLLDALYGKVLTDEQYQAVRAEPTNPSKMRKLFSFTPAWNWTCMDLLLQALRESQSYLVEDLER [K61M],-0.388 ± 0.096
14,FIDQHRAALIARVTNVEWLLDALYGKVLTDEQYQAVRAEPTNPSKMRKLFSFTPAWNWTCRDLLLQALRESQSYLVEDLER [K61R],-0.437 ± 0.058
15,FIDQHRAALIARVTNVEWLLDALYGKVLTDEQYQAVRAEPTNPSKMRKLFSFTPAWNWTCFDLLLQALRESQSYLVEDLER [K61F],0.22 ± 0.16
16,FIDQHRAALIARVTNVEWLLDALYGKVLTDEQYQAVRAEPTNPSKMRKLFSFTPAWNWTCLDLLLQALRESQSYLVEDLER [K61L],-0.901 ± 0.13
17,FIDQHRAALIARVTNVEWLLDALYGKVLTDEQYQAVRAEPTNPSKMRKLFSFTPAWNWHCKDLLLQALRESQSYLVEDLER [T59H],0.07 ± 0.076
